# Data taken from PMC2850170 (The Biochemical journal, 2009).
# B1: murine hexosaminidase D, short form (enzyme, mouse, UniProt Q3U4H6 1-486, looked up)
# chain: MSSPTPFKMRLVHLDLKGAPPKVSYLSEVFPLFHALGANGLLIEYEDMFPYEGHLRLLRAKHAYSPSEVTEILRLARLSELEVIPLVQTFGHMEFVLKHAAFAHLREVALFPNTLNPHEAESLALVQAMIDQILELHRDVRWLHIGCDEVYYLGEGETSKQWLQQEQNSHAKLCLSHMQAVASHVLTQHPGVTPLVWDDMLRDIPQEQLKASGVPQLVEPVLWDYGADLDVHGKVFLIGKYQECGFQRLWAASAFKGATGASQALPPVEHHIRNHELWLQVAGSGPKDALQGIILTGWQRYDHFSVLCELLPVGIPSLAACLQSLVHGGFAEDVRLRAERFLGVSSLEIADTVSEGAGSFPGSDIHALVTQISLHLRSSVDTLLERNRYVTGWFSPYHRRRKLVHPVMIQHIQPEALSLLSRWNNLVQQLEVALQPVFYPDTIEEWLEENVLPSLQRLQDLLQDLGEAAARQPPPTSPGWDTGQNP
# Biological target: the molecule itself
# Assay: SEC
protein,measurement,value
B1,stoichiometry N,2
